Results taken from a protein production outcome set (Wang et al. 2014).

Experiment: label from the status in PepcDB records

| Sequence | protein production |
| --- | --- |
| MKEDAGNPLHLTSLNHVSVLCRSVDESMNFYQKVLGFIPIRRPESLNFEGAWLFGHGIGIHLLCAPEPEKLPKKTAINPKDNHISFQCESMGVVEKKLEEMGIDYVRALVEEGGIQVDQLFFHDPDGFMIEICNCDSLPVVPLVGEMARSCSRVKLHQMVQPQPQTQIHQVVYP | failed |
| MGKTRAGRFALRGQRTALLHLETMTQAVDSADSVDPRALEALNRYFGYDSFRPGQSGIVSAILTGHDVLGVMPTGAGKSICYQIPAAILPGVAIVISPLISLMRDQVDALNDVGLPAAFINTTQTPDEQDLVFAQALSGQIKLLYVAPERLETERFRNFAVRVPISLVAVDEAHCVSQWGQDFRSSYLGIGEFIAGLPTRPTVAAFTATATERVRRDIVSILGLHTPSITVTGFDRPNLYFDVISMPRKDKASWVASYIASHPDESGIVYCATRKETEALAESLNSAVAELRAAGGADVSDIGTIAVAYHGGMSADAREKAQRDFVTDRVPVVVATNAFGMGIDKSNVRFVIHHNMPESIEAYYQEAGRAGRDGEPSRCTLLWNESDIVTRRRLLDSDYENERLTPEEQEAVRASKRRLLDAMVGYCRTTDCLHAYMTRYFGETAGAAAKTDGKCVGGCANCEHTFETIDVTDIARAISRCVHDVNQHVGSGKIVKVLRGSKAQDLSYLNPESLPSFGMLDEVPEARIRDVLSQMATDGFLTIAEGRLPIVGFGPRAAETVAPEFHYDIKKIKRADARARRTPDVSTPAVGSYVPDDGDEALFQKLRALRLDIARELGKPPYIVFSDKTLRDMVRVKPITDDQFLAVNGVGESKLKQYGERFLAAIREDSGDEA | failed |
| MYLLRINIEGTINYGLYKYLYPALKAAEGKKSIAGLILVFNSGGGDAASSQLIHDLVKKIRKKKPVYSLALGICASGAYWIASASTKIYAIDTSLIGSIGVISIRPNVKKLMEKIGVDVMVYKSGKYKDMTSPFSEPNEEEKSVYQRLLDDIFEKFKRSVAEDRGIPSEKIDEIANGMVYSAKMAADNGLIDRIANYDDLVSDLTKEVGKRLKVKEFYIRKPLLQRLLGILEHHHHHH | failed |
| MKIIVVGGGKVGKALCRSLVEEEHDVILIEENESVLNHVTKRLDIMGIVGNGANFRILEQADVQHCDIFIAITDKDEVNMVAAVLAKRMGAKETIVRVRNPEYSNTYFKDKNFLGFSLVVNPELLTARYIANMVDFPNARSVEHFVNGRVMLMEFKIVDGNNLCQMSLNQFRKRFNNIVICAIERGNELIIPDGDAVIQSGDKIFVTGKRMEMIHFHNFVKNKVIKHLMIIGAGRISYYLLNILKTTNRHLQVKVIELNPKKAELFSQEFPHIHVVQGDGTAKDILLEESAANYDAIATLTGVDEENIIASMFLETLGVQKNITKVNRTSILEIINPEQFSSIITPKSIAVDSMMHFIRGRVNAQDSNLDAMHHVANGRIETLQFEIRQTNKMAGKTLSELHFKTNVLIAAIIRNGKTIFPTGDDILEVGDKIVVITLLTNITHIYDLLKR | failed |
| MKVSCCFGTCLKHLDPACVKTSRRIAILHSALPRQRPPPALECPAFSFGDSDMTDQRKGSDAEPTTHFGFKNVPESQKAEKVAEVFHSVAAKYDLMNDVLSGGMHRLWKRFTIELSGVRAGNRVLDIAGGTGDLTKRFSHLVGPTGQVVLADINESMLKVGRDRLLDLGVAGNVEFVQADAEKLPFPDNHFDCVTIAFGLRNVTHKEDALRSMLRVLKPGGRLLVLEFSKPTNALMSKVYDAYSFAFMPLAGKLITNDSESYRYLAESIRMHPNQETLKSMMVEAGFDRVTYHNMTAGIVALHRGIKP | failed |
| EITSANTEWFFNPNAYVIIAESVESGKIVGGARIHIVGGTQPLPIEDAIGKMDPHIYKLVEEHGKKGSGELCGLWNAREVAGMGISTMLTRAAIALAIQLNLSTLFVICAERTYQNIFKDQGFEIIP | failed |
| DDLIFYKGVDGRYLGANKAFCDFFGKESMEGLSDADILDAEQLRLTQKSDEEVVRFRKNIRLEYGGGHPLRGRFFFSITKSPILLRGKVVGILGIARD | failed |
| MERNSWAEQWDSNQQSSGKTTHGGEGGGASSKYKEKVGAGLGKTKAAASSGLKKVKIGTSLGLNWVKDKYNKTTTKN | failed |
| TINSKFQSDVSAALKKYMGTDLTTGGYAAVMNPKTGGVYAMAGWDRNVKTGKLTQNDLAAIQDPIVMGSAVKPAMVSMALQAGVITPTSSTQDDQIIKLAGTAEKHSDFNPTGVKIPLTAEQALEDSSNTYMIQLALKMNGTPYVSGMSLNVSSNIWQKMRNGFGEFGLGSRTGIDLPGETAGYKGSITGSLASSFIDEAFGQYDTYSVIQMARFVSTIANGGYLVQPKVVASVLKSGKNGVRSSVASEVSPTIQGYVKMNNAQWNVIKTGMWDVANGSSQYNTGGTLIHELSPKVAAKTGTAESFVDGQQTQNDTLIMYSPYAPFAIAIAYVGDKVDSFGAVEKAAAAIYNAFWKDVMPKPND | failed |
| GKVYTINSGPIYANPIIHHQVNEKIGYLVYSAFESGFDQELFDVFKEFKSQNITELILDLRYNGGGDVTSANLISSCIAGDLCIDKTFASYRYNDERMKVLGNQRPIQKFAYSQYDNLSTSLSAGGLNLRKIYCLVTDDSASASELVINALRGIDIEVILIGTTTHGKNVGMEGVELTAGTDKYLLFPITFQAYNAKGFGDFENGFTPDYEINENKPNGEYFEGYGDFGAESDPLYAKAISLISGNEVTT | failed |
| MSETPERGLGSRAGVVLVDRYRLDERIGVGGMGEVWRATDILLSRPVAVKLLHLAQVSDPVSQQRFRTEAQITAALSHPNIAQVYDYGEQDGFSFLVMELITGESLSAIIKRNPGLDPDITLDVVDQAAQALSAAHANGVIHRDIKPGNLLVTEDGTVKLTDFGIARGNESVTLTQTGMVMGTAQYISPEQVSGKPASPLSDIYALGIVAYECLAGHPPFTADTPLALALAHSREPPPPLPDSVPPAVRELVECMLAKDPQERPSSAAEVSQWAQRLRAALNGGDATEALGLVSATAATAVVPAQPGPPTGDSTPVDGPHSGAQAQTWPPPQGKDSDRVAERSAAPNSRLNLPVVFALIATVGAVAVGIFLVGLLGKEPGTNGTPTSHRSVVPTLSRSPDTTENITTDSQTPVPDNPGGQLPPLNDEPEESYSPAPHPEPTTPPQSEYPSPPGDGADSTPDPGEEPGGPSDEDDADGGGAAPGGPTGGTGEESRGSTPP | failed |
| MTQDEQICSLALTRIPGLGPTGAFRLVSSLGSATRVFEHRKELSQLVPGVSEKIITALNNSEAFRRAEQELTFCEKNHIRCLTLNDEGYPGRLRECDDAPLALFYRGNADLNALHVINMVGTRHATPYGQDICTRFLADLSVLCPNALIVSGLAYGIDIHAHRAALQNHFKTIGVLAHGLDRIYPAEHRKTAVSMLEQGGLLTEFTSGTNPDRQNFVKRNRIVAGMSDATVVIESAAKGGALITAELAESYHRDCFAFPGRCNDEYSIGCNNLIRKNQAVLITSAEDLVKAMGWESSPKTEKTVQRELFPDLSEEEERIVKRLGKMSEGLQINTLVIDTNIPVNRMSALLFELEMKGVIRALAGGVYRLIM | not failed |
| MSLETRARNSTRPASGLIDWEQARQAALRLSQWEQAPVDNRAFRREQYARMVALSEPLIADYLGVRLPEPVSRIFVFDRREWLEANIVSFSQLFRPIEEMYEKNGGGRGALGVLMNDVSSKLLGVQIGGLLGYLAQRVLGQYDLSLLSAEATGGSLYFVEPNIARVQQQLGLSDEDFRLWITLHEMTHAFEFEAYPWVRTYFRELLEQNFALVSGQMLSSGNSLVDMLMRLLQGIGSGQHWIETVLTPEQRAVFDRIQALMSLIEGYGNHVMNAVGRRLLPSFNQIEQQIAQRQRQRTMLDQMVFRLTGLDLKLAQYQQGEAFVNAVVAARGIQFASRVWERPENLPSMDEIRNPGQWIVRMDREGHHHHHH | not failed |
| MSLERFAPIKVERCKDIQKELKKAAAENKLQTEDLWFEILKTSIFIKNSAKDDFSEAFGGELQQLEEEEYYEKKELTLYQTHDIKIKSNAYKRFFEVKVDENLSAIEIILDECFIVLDTEEHYQEMFAYIKECLAFQGVVFRHFSQMYENLKTELRKYQKEAQNKRFILYTSSTFIPNIEEQSHFLLEEEYLPTHTIFLSDQEESFVKENYYIAKENQKVACVNCPKQGRDGRNLKGLYIELPKVAHSPTPIGHDKNAFEEREENNALVYYSKALQGVKMEKGRLVSKQNFIFKNGIKSIETPNLLGGLESGLALEIQARDELSDAIDSNLILEASVINIKGNVGKNVILVAKEITIEGQIHPESYVYANKARITNHKGVCYAKELECKYLERAKVYANSVKVEASAGSVVYAKEIALEKLKSDNKLYFSKQCWIDEVDGNGNRFIFYAFGGRENQEELKAAKQKLNALGLKSKKIIAQHQSLNHLVKNHQAIMEKLKNATEEIKRSLMQQESVKDAYSEFMFALKRLKILKAQMLELQKINNECYAKLISIENSFQHASITTKNPFKQENIVIYHRNYPKVSNSTAMLSHNESVNVIYEDHKIKKVPKSAIKG | failed |
| MPHNLFSLFSQPLKPPLFEPGEPRFWDDPHISKSMLEAHLNQTHDGASRRNAEIEKTIRHLITSGFLKTGDQVLDLGCGPGLYSSKLCFEGMKVTGIDLSRRSIDYARAQAERDGQNIDYIYTDFFNIDYKETFDAVLQVYGEICTFSDEKRDLLLNLVHRALKDNGIFIFDVSTRELRMREGLKNRWYFSEGGFWRPGKHLVLEEGFDYPENDTWLNQYIIVDEDGTVKVYRLWLHDYSFETISQTLENNGFRVEKAWNNLSGELYQKGGDWIAIAAKKV | failed |
| MANWLNQLQSLLGQSSSSTSSSADQGLGKLLVSGALGGLAGLLVANKSARKLLTKYGTNALLVGGGAVAGTVLWNKYKDKIRAAHQDEPQFGAQSTPLDERTERLILALVFAAKSDGHIDANERAAIDQQLREAGVEEQGRVLIEQAIEQPLDPQRLATGVRNEEEALEIYFLSCAAIDIDHFMERSYLNALGDALKIPQDVREGIERDLEQQKRTLAE | failed |
| MAKNQSGSIFNTKVTIKYDKEKIIKLSSEMFSEDLCIQCGRCCMIHVYTTDEKIDPEIVYCNHLDVETKRCKIYKNRFNKEKECLSMLEAILTSALPKDCPYVKNYPSYEEPWFYGLLRGKNLK | failed |
| MTPAAHPPRAAIADIAGHLPEQVLTNDVLAQLYPDWPAEKILAKTGIRERRIAAPRETAADLAYEAARKLFAQGAVGADQVDFVILCTQAPDYVLPTSACMLQHRLGIPTHAGALDVNLGCSGYVYGLSLAKGLVETGAARCVLLLTADTYSKYLHPLDKSVRTLFGDGASATAVIAEHGELERIGPFVFGTDGRGAPNLIVKAGLFREPKSADSAREHEDASGNVRTDEHLYMNGAEVMAFSLAEVPRAADRLLALAGEPRENIDCFVLHQANRFMLDALRKKMKIPEHKFPVLMEHCGNTVSSTLPLALETMRANGTLARGMRLMLLGFGVGYSWAGCLVNF | not failed |
| MNNKFKDFFGFGDNDSYEERDAYEEHYDEQEEMQNSNRPTNSRDSNVVSIKAGQAGSGPSKIVLYEPRVYSDAKEVAQNLLNQRAIIINFSRMDDASARRVVDFITGTVYALNGEIQRIGDKIFLATPPKFETDGKITELLDKKDTLG | failed |
| MRKITQAISAVCLLFALNSSAVALASSPSPLNPGTNVARLAEQAPIHWVSVAQIENSLAGRPPMAVGFDIDDTVLFSSPGFWRGKKNFSPESEDYLKNPVFWEKMNNGWDEFSIPKEVARQLIDMHVRRGDAIFFVTGRSPTKTETVSKTLADNFHIPATSMNPVIFAGDKPGQNTKSQWLQDKNIRIFYGDSDNDITAARDVGARGIRILRASNSTYKPLPQAGAFGEEVIVNSEY | failed |
